According to patent publication US20180037641A1:

Tests used:
[1] = molecular target: recombinant human tau, longest isoform hTau40 (441 aa) (human) (UniProt P10636); assay: SPR (BIAcore 2000), tau immobilised on CM-5 chip, antibody injected 0.11-7.5 µg/ml, 1:1 Langmuir global fit
[2] = molecular target: recombinant mouse tau, longest isoform mTau40 (432 aa) (mouse) (UniProt P10637); assay: as above
[3] = molecular target: recombinant human tau, longest isoform hTau40 (441 aa) (human) (UniProt P10636); assay: SPR (Biacore), tau immobilised on CM-5 chip, antibody injected 0.78-400 nM
[4] = molecular target: recombinant mouse tau, longest isoform mTau40 (432 aa) (mouse) (UniProt P10637); assay: as above
RD(LM)-YFP = RD(LM)-YFP (UniProt P10636); assay: cell-based or functional assay
RD(LM)-HA = RD(LM)-HA (UniProt P10636); assay: cell-based or functional assay
[5] = molecular target: tau RD aggregates passing between HEK293 cells in the propagation assay (RD(LM) and RD(ΔK) constructs); assay: cell-based or functional assay
[6] = molecular target: P301S human tau, T34 isoform (1N4R), of P301S tg mice (line PS19) (human) (UniProt P10636); assay: cell-based or functional assay

Chain of recombinant mouse tau, longest isoform mTau40 (432 aa) (mouse) (P10637 other isoform, or with tags, fused parts or gaps limits assumed): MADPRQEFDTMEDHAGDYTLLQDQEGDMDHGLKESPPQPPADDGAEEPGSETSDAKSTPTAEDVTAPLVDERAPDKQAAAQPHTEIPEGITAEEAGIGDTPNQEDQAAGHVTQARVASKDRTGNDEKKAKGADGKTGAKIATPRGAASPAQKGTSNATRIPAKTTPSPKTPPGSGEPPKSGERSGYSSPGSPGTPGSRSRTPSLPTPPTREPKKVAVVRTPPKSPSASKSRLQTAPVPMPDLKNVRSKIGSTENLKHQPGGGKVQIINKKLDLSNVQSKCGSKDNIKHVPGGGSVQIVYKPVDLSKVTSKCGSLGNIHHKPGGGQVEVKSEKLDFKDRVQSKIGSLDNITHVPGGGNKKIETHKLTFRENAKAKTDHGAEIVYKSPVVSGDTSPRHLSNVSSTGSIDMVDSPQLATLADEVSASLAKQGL

Substance | Kd [1] | koff [1] | kon [1] | Kd [2] | koff [2] | kon [2] | Kd [3] | koff [3] | kon [3] | Kd [4] | koff [4] | kon [4] | percentage of RD(LM)-YFP/mCherry dual positive cells (flow cytometry) (RD(LM)-YFP) | RD(ΔK)-YFP in the insoluble pellet fraction (detergent fractionation, Western blot) (RD(LM)-HA) | tau protein present in the cell medium (pull-down, Western blot) [5] | antibody concentration that significantly blocked uptake and seeding activity [6]
HJ9.4 (antibody) | 6900 pM | 0.00107 s⁻¹ | 153000 M⁻¹ s⁻¹ | 2.24 pM | 5.1e-07 s⁻¹ | 228000 M⁻¹ s⁻¹ | 6900 pM | 0.00107 s⁻¹ | 153000 M⁻¹ s⁻¹ | 2.24 pM | 5.1e-07 s⁻¹ | 228000 M⁻¹ s⁻¹ | – | – | – | –
HJ9.3 (antibody) | 99 pM | 7.51e-06 s⁻¹ | 75500 M⁻¹ s⁻¹ | 100 pM | 9.16e-06 s⁻¹ | 86100 M⁻¹ s⁻¹ | 99 pM | 7.51e-06 s⁻¹ | 75500 M⁻¹ s⁻¹ | 100 pM | 9.16e-06 s⁻¹ | 86100 M⁻¹ s⁻¹ | 1.31% | 60 % decrease | 10 fold | 0.5 µg/mL
